The target in the experiment is Histone H4 (Xenopus laevis), in the nucleosome (Xenopus laevis, UniProt P62799 2-103). In words: cryo-EM structure.

B1: Dot1L(2-416) (domain or fragment)
chain: GEKLELRLKSPVGAEPAVYPWPLPVYDKHHDAAHEIIETIRWVCEEIPDLKLAMENYVLIDYDTKSFESMQRLCDKYNRAIDSIHQLWKGTTQPMKLNTRPSTGLLRHILQQVYNHSVTDPEKLNNYEPFSPEVYGETSFDLVAQMIDEIKMTDDDLFVDLGSGVGQVVLQVAAATNCKHHYGVEKADIPAKYAETMDREFRKWMKWYGKKHAEYTLERGDFLSEEWRERIANTSVIFVNNFAFGPEVDHQLKERFANMKEGGRIVSSKPFAPLNFRINSRNLSDIGTIMRVVELSPLKGSVSWTGKPVSYYLHTIDRTILENYFSSLKNPKLREEQEAARRRQQRESKSNAATPTKGPEGKVAGPADAPMDSGAEEEKAGAATVKKPSPSKARKKKLNKKGRKMAGRKRGRPKK
Regarding B1, the binding result is “binds”.

(Values after paper doi:10.1101/501098 (bioRxiv, 2018).)
